Data reported in patent CN117255804A (GENSCRIPT NANJING CO LTD, dated 2023).
Positions count from the first letter of the chain named.

B1: 382A3E3-VH1-VL3 (antibody, IgG4, V domains shown)
VH: EVQLVESGGGLVQPGGSLRLSCAASGFTFSDYGMSWVRQAPGKGLEWVSFISNVAYGIFYADTVTGRFTISRDNAKNSLYLQMNSLRAEDTAVYYCARDELGRFDYWGQGTLVTVSS
VL: DIQMTQSPSSLSASVGDRVTITCHVSQNINIWLSWYQQKPGKAPKLLIYKASNLHTGVPSRFSGSGSGTDFTLTISSLQPEDFATYYCQQGQTFPRTFGGGTKVEIK
notes: Humanized mAb; Only VH and VL are tied to it
B2: 379E7A6-VH1-VL2 (antibody, IgG4, V domains shown)
VH: B1 VH with V5L, S35A, G57S, I58K, A61V, A75S, S78T, D105P
VL: B1 VL with S10T, Q27H, S34N, D70E, E81D
notes: as for B1
B3: 382A3E3-VH1-VL5 (antibody, IgG4, V domains shown)
VH: B1 VH
VL: B1 VL with M4L, S10F, D70E
notes: as for B1
B4: 382A3E3-VH1-VL2 (antibody, V domains shown)
VH: B1 VH
VL: B1 VL with S10T, D70E, E81D
notes: Humanized mAb expressed in CHO-3E7
B5: 382A3E3-VH2-VL5 (antibody, IgG4, V domains shown)
VH: B1 VH with E1Q, L11V, S49A, A75S, S78T, R98K
VL: B1 VL with M4L, S10F, D70E
notes: as for B1
B6: 382A3E3-VH1-VL4 (antibody, IgG4, V domains shown)
VH: B1 VH
VL: B1 VL with A43V, F83V, G100Q
notes: as for B1
B7: 379E7A6-VH1-VL1 (antibody, IgG4, V domains shown)
VH: B1 VH with V5L, S35A, G57S, I58K, A61V, A75S, S78T, D105P
VL: B1 VL with Q27H, S34N, L73F, F83I
notes: as for B1
B8: 367C3A3-VH1-VL2 (antibody, IgG4, V domains shown)
VH: QVQLVQSGSELKKPGASVKVSCKASGYTFTDYSMHWVRQAPGQGLEWMGWINTETGEPTYADDFKGRFVFSLDTSVSTAYLQISSLKAEDTAVYYCARYDYAMDYWGQGTLVTVSS
VL: DIQMTQSPSTLSASVGDRVTITCKASQDVSSAVAWYQQKSGKAPKLLIYWASIRHTGVPSRFSGSGSGTEFTLTISSLQPDDFATYYCQQRYTTPPTFGGGTKVEIK
notes: as for B1
B9: 367C3A3-VH2-VL1 (antibody, IgG4, V domains shown)
VH: QVQLVQSGAEVKKPGASVKVSCKASGYTFTDYSMHWVRQAPGQRLEWMGWINTETGEPTYADDFKGRVTITRDTSASTAYMELSSLRSEDTAVYYCARYDYAMDYWGQGTLVTVSS
VL: B8 VL with T10S, S40P, E70D, D81E
notes: as for B1
B10: 367C3A3-VH2-VL2 (antibody, IgG4, V domains shown)
VH: B9 VH
VL: B8 VL
notes: as for B1

target: T1, 人4-1BB (human, UniProt Q07011 24-255); experiment: FACS on HEK293 cells expressing human 4-1BB, 1.0 ug/ml
T1 construct: whole, on cells; also called TNFRSF9; CD137
T1 sequence (Q07011 24-255): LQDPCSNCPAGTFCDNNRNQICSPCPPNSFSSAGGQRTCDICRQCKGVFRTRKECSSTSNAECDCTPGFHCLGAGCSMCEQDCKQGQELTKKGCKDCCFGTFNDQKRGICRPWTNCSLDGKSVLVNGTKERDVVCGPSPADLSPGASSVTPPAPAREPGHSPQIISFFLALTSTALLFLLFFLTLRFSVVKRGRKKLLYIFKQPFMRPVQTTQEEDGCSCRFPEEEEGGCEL

| binding result | Binder |
| --- | --- |
| binds | B1 |
| binds | B2 |
| binds | B3 |
| binds | B4 |
| binds | B5 |
| binds | B6 |
| binds | B7 |
| binds | B8 |
| binds | B9 |
| binds | B10 |
